Results: patent publication US6413935

Target: HLA-DQ3.1 (DQA1*0301/DQB1*0310), purified from PF cells (human) (UniProt P01909)
Assay: 125I-peptide inhibition, purified class II

Q: Which IC50 does the source give for lambda rep 12-26 (peptide) here?
A: > 10 µM
